{
  "source": "paper PMC7039449",
  "about": "“FMN-dependent oligomerization of putative lactate oxidase from Pediococcus acidilactici” (PLoS ONE, 2020)",
  "molecules": {"B1": {"name": "Pediococcus acidilactici lactate oxidase (enzyme)", "chain": "MTMINGYEQSDREEKIDILNLESLEKQAEEIIPAGGFGYIAGGSEDEWTLKQNRMAFHHRQIAPKALSGIEKPELNTEIFGIPLNTPVMMAPAAAQGLAHSQGEKDTARGLAAVGGLMAQSTYSSVSIAETAAAGGDAPQFFQLYMSKDWNFNESLLDEAKKANVKAIILTVDATVDGYREADIKNKFTFPLPMANLIKFSEGNGQGKGIEEIYASAAQNIRPEDVKRIADYTNLPVIVKGIQTPEDAIRAIDAGAAGIYVSNHGGRQLNGGPASFDVLEDIATAVNKQVPIIFDSGVRRGSDVFKALASGADLVALGRPVIYGLALGGAKGVQSVFEHLNHELEIVMQLAGTKTIEDVKNNSLLNIKY", "notes": "putative L-lactate oxidase of Pediococcus acidilactici DSM 20284, Uniprot E0NE46; gene cloned from genomic DNA into pNH-TrxT; theoretical monomer mass 39 kDa; The same polypeptide without FMN (colourless fraction, or deflavinated) is a monomer that lacks secondary structure by CD; also called PaLCTO; WT PaLCTO; source: E. coli BL21 (DE3), purified (Ni-NTA, TEV cleavage, second Ni-NTA, SEC); not …"}, "B2": {"name": "Aerococcus viridans lactate oxidase (enzyme)", "chain": "MNNNDIEYNAPSEIKYIDVVNTYDLEEEASKVVPHGGFNYIAGASGDEWTKRANDRAWKHKLLYPRLAQDVEAPDTSTEILGHKIKAPFIMAPIAAHGLAHTTKEAGTARAVSEFGTIMSISAYSGATFEEISEGLNGGPRWFQIYMAKDDQQNRDILDEAKSDGATAIILTADSTVSGNRDRDVKNKFVYPFGMPIVQRYLRGTAEGMSLNNIYGASKQKISPRDIEEIAGHSGLPVFVKGIQHPEDADMAIKRGASGIWVSNHGARQLYEAPGSFDTLPAIAERVNKRVPIVFDSGVRRGEHVAKALASGADVVALGRPVLFGLALGGWQGAYSVLDYFQKDLTRVMQLTGSQNVEDLKGLDLFDNPYGYEY", "notes": "L-lactate oxidase of Aerococcus viridans, cloned from genomic DNA of strain DSM 20340; also called AvLCTO; recombinant AvLCTO; source: E. coli BL21 (DE3), purified"}},
  "key": {"PaLCTO": {"target": "T1, PaLCTO (Pediococcus acidilactici, UniProt E0NE46)", "T1 construct": "gene lctO; recombinant in E. coli, pNH-TrxT, N-terminal thioredoxin/His tag cut with TEV; 39 kDa monomer, FMN-containing homotetramer (158 kDa)", "T1 sequence (E0NE46 1-369)": "B1 chain", "experiment": "X-ray crystallography, […] Å (refolded with FMN: 6RHS, […] Å); SEC", "format": "binding", "settings": "FMN in active site; FMN addition turns apo monomer into tetramer"}, "[1]": {"target": "the molecule itself", "experiment": "SEC; analytical SEC of the yellow, FMN-containing fraction; Superdex 200 Increase 10/300 calibrated with Bio-Rad standards; 30 mM Hepes pH 7.5, 350 mM NaCl, 0.5 mM TCEP"}, "purified protein": {"substrate": "C[C@H](O)C(=O)O", "experiment": "purified protein", "settings": "pH 6.5 (DMGA buffer), 37 °C, FMN added, air, L-lactate 0.2-2.0 mM, in-house recombinant enzyme"}, "[2]": {"target": "the molecule itself", "experiment": "SEC; recombinant AvLCTO, data not shown"}},
  "data": [
    {"molecule": "Cc1cc2nc3c(=O)[nH]c(=O)nc-3n(C[C@H](O)[C@H](O)[C@H](O)COP(=O)(O)O)c2cc1C", "note": "[FMN]", "values": [
      {"measurement": "X-ray crystallography, 1.9 Å (refolded with FMN: 6RHS, 2.6 Å); SEC", "setting": "PaLCTO", "value": "The hydrogen bonding network between FMN and the surrounding residues contains in total twelve interactions"}
    ]},
    {"molecule": "B1", "values": [
      {"measurement": "stoichiometry N", "setting": "[1]", "value": 4}
    ]},
    {"molecule": "B2", "values": [
      {"measurement": "Km", "setting": "purified protein", "value": "520 ± 50", "unit": "µM"},
      {"measurement": "stoichiometry N", "setting": "[2]", "value": 4}
    ]}
  ]
}
